Measurements: patent publication EP4671273A1 (Anaveon AG, dated 2025)
Like-named read-outs stand apart in the source and are kept apart here.

Assays:
[1] = biological target: T1, human IL-21 receptor (IL-21R) on cells (human, UniProt Q9HBE5 20-538; P31785 23-369); test: cell-based or functional assay
[2] = biological target: T1, human IL-21 receptor (IL-21R) on cells; test: cell-based or functional assay; remark: listed apart in the source

T1 sequence (Q9HBE5 20-538, chain 1 of 2): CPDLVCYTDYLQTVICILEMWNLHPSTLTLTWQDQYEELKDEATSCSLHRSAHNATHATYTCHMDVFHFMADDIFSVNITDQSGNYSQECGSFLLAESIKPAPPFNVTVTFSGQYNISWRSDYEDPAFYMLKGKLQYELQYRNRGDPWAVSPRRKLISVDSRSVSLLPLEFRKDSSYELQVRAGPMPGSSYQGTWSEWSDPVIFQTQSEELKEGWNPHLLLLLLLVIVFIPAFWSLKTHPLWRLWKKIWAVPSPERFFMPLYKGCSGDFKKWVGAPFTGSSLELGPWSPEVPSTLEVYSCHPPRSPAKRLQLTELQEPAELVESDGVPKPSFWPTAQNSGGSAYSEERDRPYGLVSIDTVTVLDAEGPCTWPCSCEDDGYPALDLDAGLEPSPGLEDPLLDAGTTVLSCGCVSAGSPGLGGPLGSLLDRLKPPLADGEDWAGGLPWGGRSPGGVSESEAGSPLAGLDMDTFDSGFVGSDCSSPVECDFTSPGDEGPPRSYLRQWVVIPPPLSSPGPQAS
T1 sequence (P31785 23-369, chain 2 of 2): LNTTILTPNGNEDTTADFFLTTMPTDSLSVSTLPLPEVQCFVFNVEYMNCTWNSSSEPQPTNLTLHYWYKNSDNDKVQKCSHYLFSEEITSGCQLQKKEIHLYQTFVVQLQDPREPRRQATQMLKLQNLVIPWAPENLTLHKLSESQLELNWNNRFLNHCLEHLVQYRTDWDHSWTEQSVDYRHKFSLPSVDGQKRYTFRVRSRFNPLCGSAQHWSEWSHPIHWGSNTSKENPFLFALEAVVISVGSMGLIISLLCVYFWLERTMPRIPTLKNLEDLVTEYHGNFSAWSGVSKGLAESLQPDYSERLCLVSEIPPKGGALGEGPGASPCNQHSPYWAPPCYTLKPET

| Binder | EC50B, pSTAT3+ Jurkat PD-1 cells, PD-1 blocked [1] | EC50NB, pSTAT3+ Jurkat PD-1 cells [1] [pM] | EC50B, pSTAT3+ Jurkat PD-1 cells, PD-1 blocked [2] [nM] | EC50NB, pSTAT3+ Jurkat PD-1 cells [2] [nM] |
| --- | --- | --- | --- | --- |
| UNY098 (bispecific antibody, human IgG1, kappa, lambda, L234A L235A) heavy 1: EVQLLESGGGLVQPGGSLRLSCAASGFTFSINAMTWVRQAPGKGLEWVSTISGSGFSTYYADSLKGRFTISRDNSKNTLYLQMNSLRAEDTAVYYCAKEVYGDYWGQGTLVTVSSASTKGPSVFPLAPSSKSTSGGTAALGCLVKDYFPEPVTVSWNSGALTSGVHTFPAVLQSSGLYSLSSVVTVPSSSLGTQTYICNVNHKPSNTKVDKRVEPKSCDKTHTCPPCPAPEAAGGPSVFLFPPKPKDTLMISRTPEVTCVVVDVSHEDPEVKFNWYVDGVEVHNAKTKPREEQYNSTYRVVSVLTVLHQDWLNGKEYKCKVSNKALAAPIEKTISKAKGQPREPQVCTLPPSREEMTKNQVSLSCAVKGFYPSDIAVEWESNGQPENNYKTTPPVLDSDGSFFLVSKLTVDKSRWQQGNVFSCSVMHEALHNHYTQKSLSLSPGK light 1: not shown heavy 2: QVQLQESGPGLVKPSETLSLTCTVSGGSISSDYWGWIRQPPGKGLEWIGYISYRGSTNYNPSLKSRVTISVDTSRNQFSLKLSSVTAADTAVYYCARSAGVTDFDAWGQGTLVTVSSASTKGPSVFPLAPSSKSTSGGTAALGCLVKDYFPEPVTVSWNSGALTSGVHTFPAVLQSSGLYSLSSVVTVPSSSLGTQTYICNVNHKPSNTKVDKRVEPKSCDKTHTCPPCPAPEAAGGPSVFLFPPKPKDTLMISRTPEVTCVVVDVSHEDPEVKFNWYVDGVEVHNAKTKPREEQYNSTYRVVSVLTVLHQDWLNGKEYKCKVSNKALAAPIEKTISKAKGQPREPQVYTLPPCREEMTKNQVSLWCLVKGFYPSDIAVEWESNGQPENNYKTTPPVLDSDGSFFLYSKLTVDKSRWQQGNVFSCSVMHEALHNHYTQKSLSLSPGK light 2: not shown | 0.333 nM | 7 | – | – |
| ULS916 (bispecific antibody, human IgG1, kappa, lambda, L234A L235A) heavy 1: EVQLLESGGGLVQPGGSLRLSCAASGFTFSINAMTWVRQAPGKGLEWVSTISGSGFSTYYADSLKGRFTISRDNSKNTLYLQMNSLRAEDTAVYYCAKEVYGDYWGQGTLVTVSSASTKGPSVFPLAPSSKSTSGGTAALGCLVKDYFPEPVTVSWNSGALTSGVHTFPAVLQSSGLYSLSSVVTVPSSSLGTQTYICNVNHKPSNTKVDKRVEPKSCDKTHTCPPCPAPEAAGGPSVFLFPPKPKDTLMISRTPEVTCVVVDVSHEDPEVKFNWYVDGVEVHNAKTKPREEQYNSTYRVVSVLTVLHQDWLNGKEYKCKVSNKALAAPIEKTISKAKGQPREPQVCTLPPSREEMTKNQVSLSCAVKGFYPSDIAVEWESNGQPENNYKTTPPVLDSDGSFFLVSKLTVDKSRWQQGNVFSCSVMHEALHNHYTQKSLSLSPGK light 1: not shown heavy 2: QVQLQESGPGLVKPSETLSLTCTVSGGSISSDYWGWIRQPPGKGLEWIGYISYRGSTNYNPSLKSRVTISVDTSRNQFSLKLSSVTAADTAVYYCARSAGVTDFDAWGQGTLVTVSSASTKGPSVFPLAPSSKSTSGGTAALGCLVKDYFPEPVTVSWNSGALTSGVHTFPAVLQSSGLYSLSSVVTVPSSSLGTQTYICNVNHKPSNTKVDKRVEPKSCDKTHTCPPCPAPEAAGGPSVFLFPPKPKDTLMISRTPEVTCVVVDVSHEDPEVKFNWYVDGVEVHNAKTKPREEQYNSTYRVVSVLTVLHQDWLNGKEYKCKVSNKALAAPIEKTISKAKGQPREPQVYTLPPCREEMTKNQVSLWCLVKGFYPSDIAVEWESNGQPENNYKTTPPVLDSDGSFFLYSKLTVDKSRWQQGNVFSCSVMHEALHNHYTQKSLSLSPGK light 2: not shown | 0.873 nM | 6 | – | – |

Next, values leading:

| EC50B, pSTAT3+ Jurkat PD-1 cells, PD-1 blocked [1] | EC50NB, pSTAT3+ Jurkat PD-1 cells [1] [pM] | EC50B, pSTAT3+ Jurkat PD-1 cells, PD-1 blocked [2] [nM] | EC50NB, pSTAT3+ Jurkat PD-1 cells [2] [nM] | Binder |
| --- | --- | --- | --- | --- |
| 56 pM | 0.7 | – | – | VYL308 (bispecific antibody, human IgG1, kappa, lambda, L234A L235A) heavy 1: EVQLLESGGGLVQPGGSLRLSCAASGFTFSINAMTWVRQAPGKGLEWVSTISGSGFSTYYADSLKGRFTISRDNSKNTLYLQMNSLRAEDTAVYYCAKEVYGDYWGQGTLVTVSSASTKGPSVFPLAPSSKSTSGGTAALGCLVKDYFPEPVTVSWNSGALTSGVHTFPAVLQSSGLYSLSSVVTVPSSSLGTQTYICNVNHKPSNTKVDKRVEPKSCDKTHTCPPCPAPEAAGGPSVFLFPPKPKDTLMISRTPEVTCVVVDVSHEDPEVKFNWYVDGVEVHNAKTKPREEQYNSTYRVVSVLTVLHQDWLNGKEYKCKVSNKALAAPIEKTISKAKGQPREPQVCTLPPSREEMTKNQVSLSCAVKGFYPSDIAVEWESNGQPENNYKTTPPVLDSDGSFFLVSKLTVDKSRWQQGNVFSCSVMHEALHNHYTQKSLSLSPGK light 1: not shown heavy 2: QVQLQESGPGLVKPSETLSLTCTVSGGSISSDYWGWIRQPPGKGLEWIGYISYRGSTNYNPSLKSRVTISVDTSRNQFSLKLSSVTAADTAVYYCARSAGVTDFDAWGQGTLVTVSSASTKGPSVFPLAPSSKSTSGGTAALGCLVKDYFPEPVTVSWNSGALTSGVHTFPAVLQSSGLYSLSSVVTVPSSSLGTQTYICNVNHKPSNTKVDKRVEPKSCDKTHTCPPCPAPEAAGGPSVFLFPPKPKDTLMISRTPEVTCVVVDVSHEDPEVKFNWYVDGVEVHNAKTKPREEQYNSTYRVVSVLTVLHQDWLNGKEYKCKVSNKALAAPIEKTISKAKGQPREPQVYTLPPCREEMTKNQVSLWCLVKGFYPSDIAVEWESNGQPENNYKTTPPVLDSDGSFFLYSKLTVDKSRWQQGNVFSCSVMHEALHNHYTQKSLSLSPGK light 2: not shown |
| – | – | 0.51 | 0.227 | GOP758 (bispecific antibody, human IgG1, kappa, lambda, L234A L235A) heavy 1: EVQLLESGGGLVQPGGSLRLSCAASGFTFSINAMTWVRQAPGKGLEWVSTISGSGFSTYYADSLKGRFTISRDNSKNTLYLQMNSLRAEDTAVYYCAKEVYGDYWGQGTLVTVSSASTKGPSVFPLAPSSKSTSGGTAALGCLVKDYFPEPVTVSWNSGALTSGVHTFPAVLQSSGLYSLSSVVTVPSSSLGTQTYICNVNHKPSNTKVDKRVEPKSCDKTHTCPPCPAPEAAGGPSVFLFPPKPKDTLMISRTPEVTCVVVDVSHEDPEVKFNWYVDGVEVHNAKTKPREEQYNSTYRVVSVLTVLHQDWLNGKEYKCKVSNKALAAPIEKTISKAKGQPREPQVCTLPPSREEMTKNQVSLSCAVKGFYPSDIAVEWESNGQPENNYKTTPPVLDSDGSFFLVSKLTVDKSRWQQGNVFSCSVMHEALHNHYTQKSLSLSPGK light 1: not shown heavy 2: QVQLQESGPGLVKPSETLSLTCTVSGGSISSDFWGWIRQPPGKGLEWIGYISSRGSTNYNPSLKRRVTISVDTSRNQFSLKLSSVTAADTAVYYCARSAGVTDFDFWGQGTLVTVSSASTKGPSVFPLAPSSKSTSGGTAALGCLVKDYFPEPVTVSWNSGALTSGVHTFPAVLQSSGLYSLSSVVTVPSSSLGTQTYICNVNHKPSNTKVDKRVEPKSCDKTHTCPPCPAPEAAGGPSVFLFPPKPKDTLMISRTPEVTCVVVDVSHEDPEVKFNWYVDGVEVHNAKTKPREEQYNSTYRVVSVLTVLHQDWLNGKEYKCKVSNKALAAPIEKTISKAKGQPREPQVYTLPPCREEMTKNQVSLWCLVKGFYPSDIAVEWESNGQPENNYKTTPPVLDSDGSFFLYSKLTVDKSRWQQGNVFSCSVMHEALHNHYTQKSLSLSPGK light 2: DIQMTQSPSSVSASVGDRVTITCRASQGISSWLAWYQHKPGKAPKLLIYVASSLQGGGGSQGQDRHMIRMRQLIDIVDQLKNYVNDLVPEFLPAPEDVETNCEWSAFSCFQKAQLKSANTGNNERIINVSIKKLKRKPPSTNAGRRQKHRLTCPSCDSYEKKPPKEFLERFKSLLQKMIHQHLSSRTHGSEDSGGGGSSGVPSRFSGSGSGTDFTLTISSLQPEDFATYYCQQANSFPLTFGGGTKVEIKRTVAAPSVFIFPPSDEQLKSGTASVVCLLNNFYPREAKVQWKVDNALQSGNSQESVTEQDSKDSTYSLSSTLTLSKADYEKHKVYACEVTHQGLSSPVTKSFNRGEC |
